In patent publication US20200208162:

Legend:
[1] = test system: TLNmir604S3Fw TALEN (encoded by cTNmir604Fw3-01); assay: cell_activity; details: as pair with P2; maize NP2222 immature embryos, Chry5d2 delivery of TALEN and donor; 5.6-24.9% with other strain combinations; printed half-site ends in T …
[2] = test system: TLNmir604S3Rv TALEN (encoded by cTNmir604Rv3-01); assay: cell_activity; details: as pair with P1; maize NP2222 immature embryos, Chry5d2 delivery of TALEN and donor; 5.6-24.9% with other strain combinations

| Sequence | activity [1] [%] | activity [2] [%] |
| --- | --- | --- |
| TCCGTGCAGTGCAGTGT (double strand) [MIR604FR3 forward half-site] | 33.3 | – |
| TCCTAAACAAAGGAGGT (double strand) [MIR604FR3 reverse half-site] | – | 33.3 |
